Results taken from patent publication US20160347802A1 (MAX PLANCK GESELLSCHAFT ZUR FOERDERUNG DER WISSENSCHAFTEN E …, published 2016).

T1: human Netrin-4, AVEXIS protein (human, UniProt Q9HB63 19-628)
T1 construct: not shown: AVEXIS tag (bait or prey)
T1 sequence (looked up): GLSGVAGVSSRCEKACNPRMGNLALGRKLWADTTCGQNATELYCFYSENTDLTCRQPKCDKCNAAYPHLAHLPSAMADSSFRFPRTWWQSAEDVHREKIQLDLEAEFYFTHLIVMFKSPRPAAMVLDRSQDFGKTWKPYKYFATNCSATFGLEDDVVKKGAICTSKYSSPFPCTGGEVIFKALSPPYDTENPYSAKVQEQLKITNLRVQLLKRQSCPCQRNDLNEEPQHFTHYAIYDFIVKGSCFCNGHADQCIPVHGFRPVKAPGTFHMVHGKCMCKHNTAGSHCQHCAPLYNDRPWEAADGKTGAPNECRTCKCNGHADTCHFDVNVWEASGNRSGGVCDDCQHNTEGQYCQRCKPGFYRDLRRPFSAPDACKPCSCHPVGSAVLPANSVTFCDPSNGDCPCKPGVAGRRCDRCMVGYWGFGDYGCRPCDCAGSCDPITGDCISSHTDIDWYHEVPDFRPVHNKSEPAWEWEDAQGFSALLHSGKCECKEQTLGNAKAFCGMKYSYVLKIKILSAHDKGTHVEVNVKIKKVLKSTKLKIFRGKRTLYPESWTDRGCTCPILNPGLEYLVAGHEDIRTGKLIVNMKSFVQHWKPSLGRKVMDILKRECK

T2: human Netrin-G1, AVEXIS protein (human, UniProt Q9Y2I2 29-510)
T2 construct: not shown: AVEXIS tag (bait or prey)
T2 sequence (looked up): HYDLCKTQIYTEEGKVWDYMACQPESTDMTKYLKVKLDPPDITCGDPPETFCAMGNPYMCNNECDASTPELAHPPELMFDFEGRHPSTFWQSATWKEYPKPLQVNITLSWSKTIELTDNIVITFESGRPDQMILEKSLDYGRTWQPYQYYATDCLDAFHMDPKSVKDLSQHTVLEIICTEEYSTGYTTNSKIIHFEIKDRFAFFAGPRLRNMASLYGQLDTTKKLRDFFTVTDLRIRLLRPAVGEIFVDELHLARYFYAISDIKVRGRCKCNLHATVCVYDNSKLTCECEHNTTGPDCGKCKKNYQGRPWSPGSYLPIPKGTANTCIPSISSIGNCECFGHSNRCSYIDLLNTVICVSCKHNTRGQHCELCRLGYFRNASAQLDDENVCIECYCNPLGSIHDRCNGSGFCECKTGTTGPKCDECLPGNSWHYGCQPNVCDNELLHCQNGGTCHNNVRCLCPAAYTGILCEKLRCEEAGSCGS

T3: human Netrin-G2, AVEXIS protein (human, UniProt Q96CW9 18-507)
T3 construct: not shown: AVEXIS tag (bait or prey)
T3 sequence (looked up): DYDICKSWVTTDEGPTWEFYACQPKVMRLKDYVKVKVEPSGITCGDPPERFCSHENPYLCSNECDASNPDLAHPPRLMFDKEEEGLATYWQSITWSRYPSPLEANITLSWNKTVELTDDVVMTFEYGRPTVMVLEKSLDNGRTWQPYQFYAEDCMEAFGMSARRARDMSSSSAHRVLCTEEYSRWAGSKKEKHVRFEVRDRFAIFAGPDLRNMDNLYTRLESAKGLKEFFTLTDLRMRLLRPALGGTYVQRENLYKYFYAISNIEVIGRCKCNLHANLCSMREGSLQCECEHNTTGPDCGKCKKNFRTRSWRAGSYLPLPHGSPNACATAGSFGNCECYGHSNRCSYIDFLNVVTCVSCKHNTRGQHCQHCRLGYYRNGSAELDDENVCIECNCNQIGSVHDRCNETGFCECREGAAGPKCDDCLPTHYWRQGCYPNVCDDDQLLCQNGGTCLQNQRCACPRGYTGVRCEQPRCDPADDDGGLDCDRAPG

T4: human DRAXIN, AVEXIS prey or bait protein (human, UniProt Q8NBI3 26-349)
T4 sequence: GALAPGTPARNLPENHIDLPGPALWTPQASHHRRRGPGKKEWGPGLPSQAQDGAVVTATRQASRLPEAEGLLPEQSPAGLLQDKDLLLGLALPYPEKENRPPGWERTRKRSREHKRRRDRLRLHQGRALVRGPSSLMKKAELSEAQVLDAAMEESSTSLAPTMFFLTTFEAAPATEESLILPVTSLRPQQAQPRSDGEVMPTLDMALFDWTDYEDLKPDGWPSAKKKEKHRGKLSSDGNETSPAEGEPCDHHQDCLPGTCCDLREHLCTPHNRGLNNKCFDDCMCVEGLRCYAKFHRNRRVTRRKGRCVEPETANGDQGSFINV


Columns and labels:
[1] = molecular target: T5, biotinylated recombinant human UNC5B (human, UniProt Q8IZJ1 27-377); assay: SPR, UNC5B immobilised, Draxin injected at 0 to 18.75nM
T5 construct: Made in HEK293-6E and immobilised on an SA chip

[2] = molecular target: T6, human Netrin1, recombinant AVEXIS protein (biotinylated when immobilised) (human, UniProt O95631 25-604); assay: SPR, Biacore 3000, biotinylated human Netrin1 on SA chip, Draxin injected at 0-18.8 nM
T6 construct: also called NTN1

[3] = molecular target: T1, human Netrin-4, AVEXIS protein; assay: AVEXIS, prey NTN4 on bait DRAXIN 21aa
Text: (§1) The Matn4-bait served as an internal prey-protein control and was used for normalization of the A486 nm values; conditioned medium (CM) serves as negative control; n=3.

[4] = molecular target: T5, biotinylated recombinant human UNC5B; assay: AVEXIS, prey DRAXIN 21aa on bait UNC5B
Text: as §1

[5] = molecular target: T2, human Netrin-G1, AVEXIS protein; assay: AVEXIS, prey NTNG1 on bait DRAXIN 21aa
Text: as §1

[6] = molecular target: T3, human Netrin-G2, AVEXIS protein; assay: AVEXIS, prey NTNG2 on bait DRAXIN 21aa
Text: as §1

[7] = molecular target: T4, human DRAXIN, AVEXIS prey or bait …; assay: AVEXIS, prey DRAXIN on bait DRAXIN 21aa
Text: as §1

[8] = molecular target: T6, human Netrin1, recombinant AVEXIS …; assay: AVEXIS, prey on bait NTN1; dark = Binding
Text: as §1

[9] = molecular target: the molecule itself; assay: AVEXIS, prey DRAXIN 21aa on bait DRAXIN 21aa
Text: as §1

[10] = molecular target: T1, human Netrin-4, AVEXIS protein; assay: AVEXIS, prey on bait NTN4; white = No binding
Text: as §1

[11] = molecular target: T2, human Netrin-G1, AVEXIS protein; assay: AVEXIS, prey on bait NTNG1; white = No binding
Text: as §1

[12] = molecular target: T3, human Netrin-G2, AVEXIS protein; assay: AVEXIS, prey on bait NTNG2; white = No binding
Text: as §1

[13] = molecular target: T5, biotinylated recombinant human UNC5B; assay: AVEXIS, prey on bait UNC5B; white = No binding
Text: as §1

[14] = molecular target: T4, human DRAXIN, AVEXIS prey or bait …; assay: AVEXIS, prey on bait DRAXIN; white = No binding
Text: as §1

[15] = molecular target: the molecule itself; assay: AVEXIS, prey on bait DRAXIN 21aa; white = No binding
Text: as §1

[16] = molecular target: T7, Matn4 ECD, mono-biotinylated bait protein (positive control); assay: AVEXIS, prey on bait Matn4 (+), positive control for the prey; dark = Binding
T7 construct: extracellular domain; also called Matn4-bait
Text: as §1

binding result [1]	Kd [2] [nM]	binding result [3]	binding result [4]	binding result [5]	binding result [6]	binding result [7]	A486nm [8]	A486nm [10]	A486nm [11]	A486nm [12]	A486nm [13]	A486nm [14]	A486nm [16]	Binder	binding result [9]	A486nm [15]
no binding (tested: 18.75 nM)	20 to 100													recombinant human Draxin (R&D systems) (ligand, Bought protein) GALAPGTPARNLPENHIDLPGPALWTPQASHHRRRGPGKKEWGPGLPSQAQDGAVVTATRQASRLPEAEGLLPEQSPAGLLQDKDLLLGLALPYPEKENRPPGWERTRKRSREHKRRRDRLRLHQGRALVRGPSSLMKKAELSEAQVLDAAMEESSTSLAPTMFFLTTFEAAPATEESLILPVTSLRPQQAQPRSDGEVMPTLDMALFDWTDYEDLKPDGWPSAKKKEKHRGKLSSDGNETSPAEGEPCDHHQDCLPGTCCDLREHLCTPHNRGLNNKCFDDCMCVEGLRCYAKFHRNRRVTRRKGRCVEPETANGDQGSFINV		
		no binding	no binding	no binding	no binding	no binding	0.342	0.063	0.066	0.062	0.062	0.063	0.252	EVMPTLDMALFDWTDYEDLKP (Tested in both bait and prey orientations; also called human 21 amino acid DRAXIN fragment; derived 21 amino acid peptide; not shown: AVEXIS tag (rat Cd4d3+4 and prey or bait module)) [human DRAXIN 21 amino acid Netrin binding fragment, AVEXIS prey or bait protein]	no binding	0.059
